Experimental findings from patent publication US20110091971A1, “Differentiation of Pluripotent Stem Cells” (priority 2008, published 2011) are described below.

Where a chain is given by its changes, count along the chain named.

The test system of test [1] is Human Embryonic Stem Cells (H1 hESC line). In words: RT-PCR of PDX1 and CDX2 at conclusion of third step of differentiation (Example 12). Format: cell-based. Particulars: end of third step; peptide given during first step. An excerpt:
At the conclusion of the first step of the differentiation protocol, replicate sets of parallel wells for each treatment group were subjected to further step-wise differentiation. It is important to note that after the first three days, all wells undergoing continuing culture and differentiation received the same treatment. The protocol for this continuing differentiation is described below. […]
RT-PCR Analysis: RNA samples were purified by binding to a silica-gel membrane (Rneasy Mini Kit, Qiagen, CA) in the presence of an ethanol-containing, high-salt buffer followed by washing to remove contaminants. […] Yield and purity were assessed by A260 and A280 readings on a spectrophotometer. […]
Unless otherwise stated, all reagents were purchased from Applied Biosystems. […] For each primer/probe set, a Ct value was determined as the cycle number at which the fluorescence intensity reached a specific value in the middle of the exponential region of amplification. Relative gene expression levels were calculated using the comparative Ct method. […] The normalized amount of target was calculated as 2-ΔCt, assuming amplification to be 100% efficiency. […]

Test [2] has the same test system. In words: High content analysis of cell number, PDX1 and CDX2 protein expression at conclusion of third step of differentiation (Example 12). Format: cell-based. The following applies: end of third step; peptide given during first step; compared with commercial activin A or ACTN1. The protocol:
At the conclusion of the first step of the differentiation protocol, replicate sets of parallel wells for each treatment group were subjected to further step-wise differentiation. It is important to note that after the first three days, all wells undergoing continuing culture and differentiation received the same treatment. The protocol for this continuing differentiation is described below.
During the second step of differentiation, cultures were grown for two days in DMEM:F12 medium (Invitrogen; Cat #11330-032) supplemented with 2% Albumin Bovine Fraction V, Fatty Acid Free (FAF BSA) (MP Biomedicals, Inc; Cat #152401), 50 ng/ml FGF7 (PeproTech; Cat #100-19), and 250 nM cyclopamine (Calbiochem; Cat #239804). Medium in each well was aspirated and replaced with a fresh aliquot (0.5 ml) on both days.
Step 3 of the differentiation protocol was carried out over four days. Cells were fed daily by aspirating medium from each well and replacing with a fresh aliquot (0.5 ml) of DMEM-high glucose (Invitrogen; Cat #10569) supplemented with 1% B27 (Invitrogen; Cat #17504-044), 50 ng/ml FGF7, 100 ng/ml Noggin (R&D Systems; Cat #3344-NG), 250 nM KAAD-cyclopamine (Calbiochem; Cat #239804), and 2 μM all-trans retinoic acid (RA) (Sigma-Aldrich; Cat #R2625). At the conclusion of the third step of differentiation, cells from some wells were harvested for analysis by RT-PCR to measure markers of differentiation. Other culture wells were subjected to high content image analysis for protein expression levels of PDX1, a transcription factor correlated with pancreatic endoderm differentiation, and CDX2, a transcription factor associated with intestinal endoderm.
High Content Analysis: At the conclusion of three days of culture, assay plates were washed once with PBS (Invitrogen; Cat #14190), fixed with 4% paraformaldehyde (Alexis Biochemical; Cat #ALX-350-011) at room temperature for 20 minutes, then washed three times with PBS and permeabilized with 0.5% Triton X-100 (Sigma; Cat #T8760-2) for 20 minutes at room temperature. Cells were washed again three times with PBS and blocked with 4% chicken serum (Invitrogen; Cat #16110082) in PBS for 30 minutes at room temperature. Primary antibody (goat anti-human SOX17; R&D Systems; Cat #AF1924) was diluted 1:100 in 4% chicken serum and added to each well for two hours at room temperature. […]
Imaging was performed using an IN Cell Analyzer 1000 (GE Healthcare) utilizing the 51008bs dichroic for cells stained with Hoechst 33342 and Alexa Fluor 488. […] Segmentation for the nuclei was determined based on gray-scale levels (baseline range 100-300) and nuclear size. Averages and standard deviations were calculated for each replicate data set. […]

B1: ACTN4: activin A variant peptide, SEQ ID 5 (protein)
chain: GLECDGKVNLCCKKQLFVSFKDIGWNDWIIAPSGYHANHCSGLCPSHIAGTSGSSLSFHSTVINHYRMRGHSPFSDMGACCVPTKLRPMSMLYYDDGQNIIKKDIQNMIVEECGCS
As to B1, in test [1], the “RT-PCR results for PDX1 and CDX2” value is “in agreement”. Also, in test [2], the cell numbers entry was “equivalent cell numbers”; the “protein expression of PDX1 and CDX2” value is on record as “equivalent protein expression”.

B2: ACTN48: activin A variant peptide, SEQ ID 49 (protein)
chain: B1 chain with L16N, H39E, S75A, D76N, V82I
As for B2, the “RT-PCR results for PDX1 and CDX2” value in test [1] was “in agreement”. In test [2], the cell numbers result is reported as “equivalent cell numbers”; the “protein expression of PDX1 and CDX2” value is given as “equivalent protein expression”.
